Ends that are not written are not given here.
Target: LptDE complex from Shigella flexneri with a hexahistidine tag on LptE (Shigella flexneri, UniProt Q83SQ0;Q0T6Q1)
Test: native MS

Chain of LptDE complex from Shigella flexneri with a hexahistidine tag on LptE (Q83SQ0 25-784, chain 1 of 2): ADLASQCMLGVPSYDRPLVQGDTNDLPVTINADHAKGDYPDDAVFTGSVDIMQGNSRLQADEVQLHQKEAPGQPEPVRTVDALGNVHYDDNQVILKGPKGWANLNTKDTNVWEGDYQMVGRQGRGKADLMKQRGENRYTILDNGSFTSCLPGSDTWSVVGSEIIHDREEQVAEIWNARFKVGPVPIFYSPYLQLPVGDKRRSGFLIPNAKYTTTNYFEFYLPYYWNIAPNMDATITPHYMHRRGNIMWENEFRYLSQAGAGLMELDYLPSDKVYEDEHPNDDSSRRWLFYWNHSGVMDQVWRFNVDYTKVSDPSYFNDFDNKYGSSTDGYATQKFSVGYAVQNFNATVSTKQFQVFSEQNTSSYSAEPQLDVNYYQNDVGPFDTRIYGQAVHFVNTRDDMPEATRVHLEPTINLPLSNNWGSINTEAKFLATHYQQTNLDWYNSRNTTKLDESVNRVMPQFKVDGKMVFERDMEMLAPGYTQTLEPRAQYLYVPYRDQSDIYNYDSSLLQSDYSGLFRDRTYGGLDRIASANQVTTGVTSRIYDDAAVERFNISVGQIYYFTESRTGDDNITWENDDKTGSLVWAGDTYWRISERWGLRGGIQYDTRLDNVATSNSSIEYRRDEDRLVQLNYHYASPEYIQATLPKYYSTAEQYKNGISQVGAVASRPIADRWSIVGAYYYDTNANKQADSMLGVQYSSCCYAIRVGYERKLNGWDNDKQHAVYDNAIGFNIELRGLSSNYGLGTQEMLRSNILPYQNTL
Chain of LptDE complex from Shigella flexneri with a hexahistidine tag on LptE (Q0T6Q1 19-193, chain 2 of 2): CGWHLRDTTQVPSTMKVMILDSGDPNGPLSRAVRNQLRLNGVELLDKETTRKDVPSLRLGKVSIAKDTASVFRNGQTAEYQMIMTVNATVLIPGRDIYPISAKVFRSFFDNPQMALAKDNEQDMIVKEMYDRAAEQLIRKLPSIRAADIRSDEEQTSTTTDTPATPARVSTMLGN

Row | Binder | stoichiometry N
1 | endogenous E. coli lipoprotein YedD (natural protein) CAEVENYNNVVKTPAPDWLAGYWQTKGPQRALVSPEAIGSLIVTKEGDTLDCRQWQRVIAVPGKLTLMSDDLTNVTVKRELYEVERDGNTIEYDGMTMERVDRPTAECAAALDKAPLPTPLP | 1
2 | CGLKGPLYFPPADKNAPPPTKPVETQTQSTVPDKNDRATGDGPSQVNY (natural protein, also: three acyl chains (R1, R2, R3) on N-terminal Cys) [endogenous Escherichia coli lipoprotein YifL] | 1

— publication doi:10.1101/2022.12.25.521893 (bioRxiv, 2022)
